Reference: patent US20260242515A1 (DUALITY BIOLOGICS SHANGHAI, published 2026)

What was measured:
[1] = target: T1, Human ADAM9 protein (ACROBiosystems, Cat. No. AD9-H52H7) (human, UniProt Q13443 29-697); experiment: indirect ELISA, human ADAM9-His coated at 1 ug/mL
T1 construct: Bought protein; also called Human ADAM-His protein; human ADAM9 antigen; not shown: His tag
T1 sequence (looked up): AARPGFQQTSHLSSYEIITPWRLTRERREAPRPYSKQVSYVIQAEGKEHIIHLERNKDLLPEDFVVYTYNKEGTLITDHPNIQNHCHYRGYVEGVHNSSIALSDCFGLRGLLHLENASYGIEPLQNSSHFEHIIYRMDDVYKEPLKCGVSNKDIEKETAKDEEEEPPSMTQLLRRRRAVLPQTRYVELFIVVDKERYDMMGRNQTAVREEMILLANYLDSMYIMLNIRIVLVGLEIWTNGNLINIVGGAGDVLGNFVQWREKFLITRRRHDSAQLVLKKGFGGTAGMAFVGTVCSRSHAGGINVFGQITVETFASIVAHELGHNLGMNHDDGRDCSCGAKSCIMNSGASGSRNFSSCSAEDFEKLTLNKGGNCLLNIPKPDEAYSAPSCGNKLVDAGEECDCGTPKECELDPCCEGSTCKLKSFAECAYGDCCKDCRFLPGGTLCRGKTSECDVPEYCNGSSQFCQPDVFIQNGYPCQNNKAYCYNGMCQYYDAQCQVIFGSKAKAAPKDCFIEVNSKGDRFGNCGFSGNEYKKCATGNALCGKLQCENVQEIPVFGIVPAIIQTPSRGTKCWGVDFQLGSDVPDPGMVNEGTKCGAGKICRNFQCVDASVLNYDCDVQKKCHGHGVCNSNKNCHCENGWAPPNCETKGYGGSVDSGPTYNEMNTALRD
Description: The plate was washed three times with PBST (PBS (pH 7.4) containing 0.05% Tween-20), followed by addition of 200 μL/well of blocking buffer containing 1% bovine serum albumin (BSA) diluted in PBST, and incubated at 37° C. for 1 hour for blocking. After blocking, the blocking buffer was discarded, and the plate was washed once with PBST buffer. The test antibody was diluted in PBST containing 1% BSA with a 3-fold serial dilution starting at 15 μg/mL across 11 doses, and added to the ELISA plate at 100 μL/well, followed by incubation at 37° C. for 1 hour. After incubation, the plate was washed three times with PBST, followed by addition of 100 μL/well of HRP-labeled goat anti-human secondary antibody (Rockland, Cat. No. 609-103-123) diluted in PBST containing 1% BSA, and incubated at room temperature for 45 minutes. The plate was washed six times with PBST, followed by addition of 100 μL/well of TMB chromogenic substrate (Suzhou Yacoo Chemical Reagent Co., Ltd., Cat. No. S0025), and incubated at room temperature in the dark for 10 minutes. The reaction was terminated by adding 50 μL/well of 1 M HCl, and the absorbance was measured at 450 nm using a microplate reader (Thermo, Ascent) for data analysis.

[2] = target: T2, ADAM9 on human tumor cells (LS174T, HepG2, Calu-3, Colo205) (human, UniProt Q13443 29-819); experiment: cell-based or functional assay
T2 sequence (looked up): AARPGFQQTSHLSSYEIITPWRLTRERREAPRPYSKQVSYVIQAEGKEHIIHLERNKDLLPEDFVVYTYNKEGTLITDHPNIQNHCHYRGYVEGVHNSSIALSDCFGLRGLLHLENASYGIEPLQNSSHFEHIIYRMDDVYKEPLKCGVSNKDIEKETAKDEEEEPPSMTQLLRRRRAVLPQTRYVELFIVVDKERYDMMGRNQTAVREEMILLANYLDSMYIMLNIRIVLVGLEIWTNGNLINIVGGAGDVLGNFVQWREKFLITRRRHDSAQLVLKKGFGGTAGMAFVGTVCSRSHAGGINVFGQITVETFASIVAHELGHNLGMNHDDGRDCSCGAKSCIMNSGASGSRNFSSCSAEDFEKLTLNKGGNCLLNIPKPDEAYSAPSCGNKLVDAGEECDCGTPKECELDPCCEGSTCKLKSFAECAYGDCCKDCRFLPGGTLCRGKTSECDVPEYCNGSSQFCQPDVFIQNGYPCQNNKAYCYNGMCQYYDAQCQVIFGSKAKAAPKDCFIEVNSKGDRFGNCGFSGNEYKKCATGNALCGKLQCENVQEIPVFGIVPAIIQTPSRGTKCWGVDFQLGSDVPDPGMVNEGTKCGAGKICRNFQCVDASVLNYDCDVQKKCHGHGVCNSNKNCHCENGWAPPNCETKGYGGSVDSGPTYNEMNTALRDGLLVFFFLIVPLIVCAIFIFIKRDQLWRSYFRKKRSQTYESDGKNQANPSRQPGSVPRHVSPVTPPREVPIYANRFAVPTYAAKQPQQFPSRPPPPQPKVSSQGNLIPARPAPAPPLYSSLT

B1: Ab15 (antibody, human IgG1, kappa, V domains shown)
VH: QVQLQQPGAELKKPGASVKVSCKASGFTFPLYWMNWVRQRPGRGLEWIGRIIPIFGHTKYNEKFKDRATMTADESSSTAYMELSSLTSEDSAVYYCARGGYYYYPREGFLDYWGQGTSVTVSS
VL: DIVMTQSPDSLSVSPGERATINCRSSQSVDYSGDSYMNWYQQKPGQSPRLLIYAASDRESGVPDRFSGSGSGTDFTLKISNVEEEDAATYYCQQSREDPFTFGQGTRVEIKR
notes: Humanized anti-ADAM9 IgG1/kappa; also called Ab15-V (variable regions)
B1 was tested. Which EC50 [1] did it give?
Its EC50 is 0.049 nM.

What about the “Top (OD450)” value [1] of the same binder?
Its value is 3.28 OD450.

And the EC50 for internalization [2]?
Its EC50 for internalization is 0.17 nM.

What about the “Maximum internalization rate (%)” value [2] of the same binder?
Its value is 81.8%.

B2: Ab16 (antibody, human IgG1, kappa, V domains shown)
VH: QVQLQQPGTEVVKPGASVKLSCKASGFTFPLYWMHWVRQRPGRGLEWIGRIIPIFGHTKYNEKFKNKATLTADESSSTAYMELRSLTSDDSAVYYCARGGYYYYPREGFLDYWGQGTSVTVSS
VL: DIVMTQSPASLSVSPGERASISCRSSQSVDYSGDSYMNWYQQKPGQSPRLLIYAASDRESGVPDRFSGSGSGTDFTLKISRVEEEDAGTYYCQQSREDPFTFGQGTKVDIKR
notes: Humanized anti-ADAM9 IgG1/kappa; also called Ab16-V (variable regions)
How did the EC50 [1] turn out when B2 was run?
Its EC50 is 0.042 nM.

And the “Top (OD450)” value [1]?
The value was 3.36 OD450.

What about the EC50 for internalization [2] of the same binder?
The EC50 for internalization was 0.12 nM.

And the “Maximum internalization rate (%)” value [2]?
Its value is 83.3%.
